Assay in all cases: SEC; analytical gel filtration of the purified rubisco; oligomer state read from the elution; conditions not shown (Appendix)
The target of data set [1] is Acidithiobacillus ferrooxidans rubisco (form-II) (Acidithiobacillus ferrooxidans).
In data set [2] the target is Gallionella sp. rubisco (form-II) (Gallionella sp.).
The target in data set [3] is Sulfurivirga caldicuralii rubisco (form-II) (Sulfurivirga caldicuralii).
Data set [4] has as its target Zetaproteobacteria_53_45 rubisco (form-II) (Zetaproteobacteria_53_45).
Data set [5] addresses Zetaproteobacterium rubisco (form-II) (Zetaproteobacterium).
Data set [6] deals with the molecule itself.

For the molecule “Acidithiobacillus ferrooxidans rubisco (form-II) (enzyme)”, the stoichiometry N (usually a count of units in the complex or per binding partner) in data set [1] worked out at 6.

With “Gallionella sp. rubisco (form-II) (enzyme)”, the stoichiometry N in data set [2] is 2. As for “Sulfurivirga caldicuralii rubisco (form-II) (enzyme)”, the stoichiometry N in data set [3] worked out at 4. In turn, “Zetaproteobacteria_53_45 rubisco (form-II) (enzyme)” gave a stoichiometry N in data set [4] of 2. “Zetaproteobacterium rubisco (form-II) (enzyme)” came in with a stoichiometry N in data set [5] of 2.

B1: Hydrogenovibrio marinus rubisco (form-II) (enzyme, UniProt Q59462 1-463, looked up)
chain: MDQSNRYADLTLTEEKLVADGNHLLVAYRLKPAAGYGFLEVAAHVAAESSTGTNVEVSTTDDFTRGVDALVYEIDEAAFGDKGGLMKIAYPVDLFDPNLIDGHYNVSHMWSLILGNNQGMGDHEGLRMLDFLVPEKMVKRFDGPATDISDLWKVLGRPEVDGGYIAGTIIKPKLGLRPEPFAKACYDFWLGGDFIKNDEPQANQNFCPMEVVIPKVAEAMDRAQQATGQAKLFSANVTADFHEEMIKRGEYVLGEFAKYGNEKHVAFLVDGFVTGPAGVTTSRRAFPDTYLHFHRAGHGAVTSYKSPMGMDPLCYMKLARLMGASGIHTGTMGYGKMEGHNDERVLAYMLERDECQGPYFYQKWYGMKPTTPIISGGMDALRLPGFFENLGHGNVINTCGGGSFGHIDSPAAGGISLGQAYACWKTGAEPIEAPREFARAFESFPGDADKIFPGWREKLGVHK
notes: form-II rubisco large subunit from Hydrogenovibrio marinus; scarless tag cleavage gives the native rubisco; source: E. coli BL21(DE3), purified (nickel magnetic beads, eluted by on-bead cleavage of the SUMO tag with bdSENP1); not shown: 14xHis, N-terminal, cleaved; bdSUMO, N-terminal, cleaved
B1: in data set [6], the “stoichiometry N” value stood at 2.

These data come from PMC7507306, “Highly active rubiscos discovered by systematic interrogation of natural sequence diversity” (The EMBO Journal, 2020).
